B1: MBPCC1: maltose-binding protein fusion of the human TRPA1 C-terminal coiled-coil CC1 (amino acids A1036-T1078) (domain or fragment, UniProt O75762 1036-1078, looked up)
chain: ADKSLEMEILKQKYRLKDLTFLLEKQHELIKLIIQKMEIISET
notes: human TRPA1 C-terminal coiled-coil CC1, amino acids A1036-T1078; source: E. coli BL21(DE3), purified (amylose resin, SEC); also co-expressed with ARD in BL21(DE3), in cleared lysate; not shown: poly-histidine, N-terminal, kept; MBP, N-terminal, kept
B2: TRPA1 ARD construct (N-terminal ankyrin repeat domains, amino acids 446-639) (domain or fragment, human, UniProt O75762 446-639, looked up)
chain: KKSPLHFAASYGRINTCQRLLQDISDTRLLNEGDLHGMTPLHLAAKNGHDKVVQLLLKKGALFLSDHNGWTALHHASMGGYTQTMKVILDTNLKCTDRLDEDGNTALHFAAREGHAKAVALLLSHNADIVLNKQQASFLHLALHNKRKEVVLTIIRSKRWDECLKIFSHNSPGNKCPITEMIEYLPECMKVLLD
notes: human TRPA1 ankyrin repeat domains with resolvable density in the cryoEM structure, amino acids 446-639; Cloned into pET28b (Nhe I and Sac I) in frame with an N-terminal poly-histidine tag; also called ARDs; N-terminal ARD; source: E. coli BL21(DE3), co-expressed with MBPCC1, in cleared lysate; not shown: poly-histidine, N-terminal, kept

Key:
[1] = molecular target: the molecule itself; experiment: SEC-MALS; MBPCC1 at 15 mg/ml (~300 uM), absence of IP6, Superdex 200 column
[2] = molecular target: the molecule itself; experiment: SEC-MALS; MBPCC1 diluted to 1 mg/ul (~20 uM) as printed, absence of IP6, Superdex 200 column
[3] = molecular target: B1; experiment: pull-down; amylose resin co-purification from cleared lysate of bacteria co-expressing ARD and MBPCC1; incubation and 4 washes at 4 C, Buffer A1T, with or without IP6 and/or AITC; anti-His Western blot; conditions: partners not purified

Binder | stoichiometry N [1] | stoichiometry N [2] | ARD:CC ratio [3]
B1 | 4 | 3 | –
B2 | – | – | ~0.3
